Test results taken from article PMC7584215, ““The structure of the Type III secretion system export gate with CdsO, an ATPase lever arm”” (PLoS Pathogens, 2020).

B1: CdsO residues 25-110 from Chlamydia pneumoniae (domain or fragment)
chain: KEKRRLLEIEQEKLREKEAERDKVKNHYMQKIQQLRDLLDEGTTSDAVLQIKSYIKVVAVQLSEEEEKVNKQKEVVLAASKELEKA
notes: CdsO (central stalk protein of the T3SS ATPase, SctO family), Chlamydia pneumoniae, residues 25-110 of the 168 residues of full-length CdsO; Cloned into pET28 as CdsV; Called monomeric in the ITC methods; also called CdsO_(25-110); central stalk protein
B2: CdsV C-terminal region (residues 345-710) from Chlamydia pneumoniae (domain or fragment)
chain: ASTTVGAAGDGAATVGDNPDDYSLTLPVILELGKDLSKLIQHKTKSGQSFVDDMIPKMRQALYQDIGIRYPGIHVRTDSPSLEGYDYMILLNEVPYVRGKIPPHHVLTNEVEDNLSRYNLPFITYKNAAGLPSAWVSEDAKAILEKAAIKYWTPLEVIILHLSYFFHKSSQEFLGIQEVRSMIEFMERSFPDLVKEVTRLIPLQKLTEIFKRLVQEQISIKDLRTILESLSEWAQTEKDTVLLTEYVRSSLKLYISFKFSQGQSAISVYLLDPEIEEMIRGAIKQTSAGSYLALDPDSVNLILKSMRNTITPTPAGGQPPVLLTAIDVRRYVRKLIETEFPDIAVISYQEILPEIRIQPLGRIQIF
notes: CdsV (export gate protein, SctV family), Chlamydia pneumoniae, residues 345-710, the cytoplasmic C-terminal region; Cloned into pET28 with the vector's N-terminal hexa-His tag and thrombin cleavage site; Homo-nonameric ring; also called WT CdsVc; soluble export gate; source: nonameric peak fractions pooled

What was measured:
[1] = target: B2; assay: ITC; monomeric CdsO_(25-110) (2.2 mM) titrated into nonameric CdsVc (15.0 uM) or nonameric CdsVc L638A/D639A (12.1 uM); 20°C; 10 mM HEPES pH 7.5, 500 mM NaCl; 24 x 2 uL injections; conditions: both partners purified
[2] = target: B2; assay: crystal structure; CdsVC mixed with ~10% molar excess of CdsO_(25-110); 100 mM Bis-Tris pH 6.0, 4% PEG 3350, 200 mM ammonium acetate; refined to 4.6 Å; conditions: both partners purified
[3] = target: the molecule itself; assay: crystal structure; CdsVC alone; hanging drop, 100 mM HEPES pH 6.75, 5% PEG-6000, 21°C; refined to 2.8 Å

Row | Binder | Kd [1] [µM] | stoichiometry N [2] | stoichiometry N [3]
1 | B1 | 28 ± 3 | 1 | 
2 | B2 |  |  | 9
